According to the supplement of paper PMC9112550, “Optimization of the antimicrobial peptide Bac7 by deep mutational scanning” (BMC Biology, 2022):

Tested on: Escherichia coli TOP10
Test: shrunken log2 fold change of peptide-encoding DNA abundance (4.5 h post-induction vs induction); higher = less antimicrobial activity (less host growth inhibition)
Details: time post-induction: 4.5 h; library: site-saturation at positions 5, 18, 19, 20
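Also: peptides expressed intracellularly from a pBAD plasmid library in pooled LB shake-flask culture, induced with 0.3% L-arabinose, DNA abundance read by NGS, three biological replicates, DESeq2 with apeglm shrinkage.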

| Sequence | shrunken log2 fold change |
| --- | --- |
| RRIRHRPPRLPRPRPRPLIAPRP | -0.261 |
| RRIRYRPPRLPRPRPRPFLRPRP | -0.308 |
| RRIRNRPPRLPRPRPRPETSPRP | 0.24 |
| RRIRCRPPRLPRPRPRPAYGPRP | 0.13 |
| RRIRRRPPRLPRPRPRPPGQPRP | 0.422 |
| RRIRNRPPRLPRPRPRPRDHPRP | -0.219 |
| RRIRERPPRLPRPRPRPQYSPRP | -0.0489 |
| RRIRIRPPRLPRPRPRPFNLPRP | -0.496 |
| RRIRYRPPRLPRPRPRPKPWPRP | 0.03 |
| RRIRNRPPRLPRPRPRPSRFPRP | -0.0872 |
| RRIRVRPPRLPRPRPRPQKTPRP | 0.0603 |
| RRIRHRPPRLPRPRPRPVDNPRP | 0.013 |
| RRIRCRPPRLPRPRPRPCWDPRP | -0.294 |
| RRIRNRPPRLPRPRPRPLKGPRP | -0.0139 |
| RRIRHRPPRLPRPRPRPRCHPRP | -0.555 |
| RRIRNRPPRLPRPRPRPKFPPRP | -0.0759 |
| RRIRSRPPRLPRPRPRPRLGPRP | 0.468 |
| RRIRQRPPRLPRPRPRPVHSPRP | -0.0049 |
| RRIRDRPPRLPRPRPRPSLGPRP | 0.487 |
| RRIRHRPPRLPRPRPRPTCIPRP | -0.147 |
| RRIRTRPPRLPRPRPRPLDEPRP | 0.23 |
| RRIRCRPPRLPRPRPRPPNWPRP | 1.17 |
| RRIRVRPPRLPRPRPRPFCFPRP | 0.0496 |
| RRIRSRPPRLPRPRPRPHQFPRP | -0.124 |
| RRIRFRPPRLPRPRPRPVGMPRP | 0.348 |

| Sequence | shrunken log2 fold change |
| --- | --- |
| RRIRMRPPRLPRPRPRPKVSPRP | 0.0176 |
| RRIRSRPPRLPRPRPRPRGEPRP | 0.754 |
| RRIRCRPPRLPRPRPRPPGHPRP | 0.422 |
| RRIRFRPPRLPRPRPRPSVTPRP | -0.322 |
| RRIRMRPPRLPRPRPRPKNWPRP | 0.671 |
| RRIRWRPPRLPRPRPRPSFCPRP | -0.136 |
| RRIRARPPRLPRPRPRPPNFPRP | -0.0624 |
| RRIRNRPPRLPRPRPRPMQDPRP | -0.0611 |
| RRIRHRPPRLPRPRPRPYRDPRP | -0.0135 |
| RRIRIRPPRLPRPRPRPCSMPRP | -0.00947 |
| RRIRARPPRLPRPRPRPACEPRP | 0.879 |
| RRIRFRPPRLPRPRPRPIKRPRP | 0.988 |
| RRIRARPPRLPRPRPRPQYAPRP | 0.0596 |
| RRIRFRPPRLPRPRPRPSPKPRP | 0.188 |
| RRIRARPPRLPRPRPRPARVPRP | 0.813 |
| RRIRERPPRLPRPRPRPSDPPRP | -0.417 |
| RRIRWRPPRLPRPRPRPPTYPRP | -0.104 |
| RRIRKRPPRLPRPRPRPSRWPRP | 0.639 |
| RRIRLRPPRLPRPRPRPIIGPRP | -0.0425 |
| RRIRFRPPRLPRPRPRPAETPRP | 0.0238 |
| RRIRMRPPRLPRPRPRPCLKPRP | 0.12 |
| RRIRCRPPRLPRPRPRPQHPPRP | -0.132 |
| RRIRGRPPRLPRPRPRPFYNPRP | 0.0314 |
| RRIRKRPPRLPRPRPRPNGVPRP | 0.0149 |
| RRIRPRPPRLPRPRPRPSTRPRP | -0.0318 |

| Sequence | shrunken log2 fold change |
| --- | --- |
| RRIRMRPPRLPRPRPRPVNNPRP | -0.0848 |
| RRIRARPPRLPRPRPRPNQTPRP | 0.064 |
| RRIRARPPRLPRPRPRPNALPRP | 0.296 |
| RRIRQRPPRLPRPRPRPFPGPRP | 0.115 |
| RRIRFRPPRLPRPRPRPKQDPRP | 0.21 |
| RRIRRRPPRLPRPRPRPECAPRP | 0.426 |
| RRIRVRPPRLPRPRPRPVWCPRP | 0.423 |
| RRIRHRPPRLPRPRPRPYWPPRP | -0.306 |
| RRIRIRPPRLPRPRPRPCVMPRP | -0.106 |
| RRIRWRPPRLPRPRPRPVWWPRP | 0.729 |
| RRIRRRPPRLPRPRPRPSQRPRP | 0.0863 |
| RRIRGRPPRLPRPRPRPEDDPRP | 2.81 |
| RRIRDRPPRLPRPRPRPRECPRP | 0.0105 |
| RRIRKRPPRLPRPRPRPCWWPRP | 0.284 |
| RRIRERPPRLPRPRPRPIWGPRP | -0.0579 |
| RRIRARPPRLPRPRPRPTAYPRP | 0.223 |
| RRIRLRPPRLPRPRPRPLWVPRP | 0.0349 |
| RRIRQRPPRLPRPRPRPWWHPRP | 0.00797 |
| RRIRKRPPRLPRPRPRPFCIPRP | 0.0646 |
| RRIRRRPPRLPRPRPRPPFVPRP | 0.675 |
| RRIRERPPRLPRPRPRPAPYPRP | -0.123 |
| RRIRTRPPRLPRPRPRPVSKPRP | -0.096 |
| RRIRFRPPRLPRPRPRPLLLPRP | -0.443 |
| RRIRMRPPRLPRPRPRPVNSPRP | 0.00706 |
| RRIRWRPPRLPRPRPRPCYPPRP | -0.466 |

| Sequence | shrunken log2 fold change |
| --- | --- |
| RRIRMRPPRLPRPRPRPQLFPRP | 0.0897 |
| RRIRTRPPRLPRPRPRPCKIPRP | -0.03 |
| RRIRARPPRLPRPRPRPGETPRP | 0.238 |
| RRIRPRPPRLPRPRPRPESRPRP | 0.11 |
| RRIRRRPPRLPRPRPRPWHKPRP | -0.384 |
| RRIRRRPPRLPRPRPRPSTSPRP | 0.0625 |
| RRIRNRPPRLPRPRPRPMHSPRP | -0.0169 |
| RRIRCRPPRLPRPRPRPDNLPRP | -0.595 |
| RRIRGRPPRLPRPRPRPRWYPRP | 0.271 |
| RRIRTRPPRLPRPRPRPMVTPRP | 0.06 |
| RRIRIRPPRLPRPRPRPSQFPRP | -0.604 |
| RRIRIRPPRLPRPRPRPMSLPRP | -0.0475 |
| RRIRDRPPRLPRPRPRPMIWPRP | -0.0952 |
| RRIRERPPRLPRPRPRPNKIPRP | -0.642 |
| RRIRDRPPRLPRPRPRPGAFPRP | 0.357 |
| RRIRIRPPRLPRPRPRPWVTPRP | -0.0476 |
| RRIRVRPPRLPRPRPRPHTWPRP | -0.351 |
| RRIRFRPPRLPRPRPRPPGAPRP | 0.847 |
| RRIRSRPPRLPRPRPRPAYCPRP | 0.149 |
| RRIRERPPRLPRPRPRPCNRPRP | -0.0134 |
| RRIRGRPPRLPRPRPRPRCLPRP | 0.706 |
| RRIRERPPRLPRPRPRPSDHPRP | -0.133 |
| RRIRFRPPRLPRPRPRPEAEPRP | 0.684 |
| RRIRMRPPRLPRPRPRPPGCPRP | 0.451 |
| RRIRVRPPRLPRPRPRPYTAPRP | -0.649 |

| Sequence | shrunken log2 fold change |
| --- | --- |
| RRIRTRPPRLPRPRPRPGCQPRP | -0.0154 |
| RRIRWRPPRLPRPRPRPVKEPRP | -0.0992 |
| RRIRIRPPRLPRPRPRPWDSPRP | -0.0632 |
| RRIRERPPRLPRPRPRPVWVPRP | 0.0145 |
| RRIRCRPPRLPRPRPRPKCIPRP | -0.102 |
| RRIRLRPPRLPRPRPRPIDCPRP | -0.00194 |
| RRIRHRPPRLPRPRPRPAIIPRP | -0.113 |
| RRIRMRPPRLPRPRPRPIAKPRP | 0.494 |
| RRIRCRPPRLPRPRPRPICEPRP | -0.178 |
| RRIRTRPPRLPRPRPRPELAPRP | 0.188 |
| RRIRMRPPRLPRPRPRPELQPRP | -0.00152 |
| RRIRTRPPRLPRPRPRPELYPRP | -0.258 |
| RRIRQRPPRLPRPRPRPSYEPRP | 0.0509 |
| RRIRERPPRLPRPRPRPLPIPRP | -0.0301 |
| RRIRMRPPRLPRPRPRPVSMPRP | 0.382 |
| RRIRFRPPRLPRPRPRPGICPRP | -0.0925 |
| RRIRQRPPRLPRPRPRPVPGPRP | -0.141 |
| RRIRTRPPRLPRPRPRPGQHPRP | 0.351 |
| RRIRGRPPRLPRPRPRPWHEPRP | -0.357 |
| RRIRNRPPRLPRPRPRPPIFPRP | 0.0391 |
| RRIRERPPRLPRPRPRPGLIPRP | 0.101 |
| RRIRHRPPRLPRPRPRPWKHPRP | -0.0222 |
| RRIRTRPPRLPRPRPRPDLLPRP | -0.263 |
| RRIRNRPPRLPRPRPRPNKQPRP | -0.0266 |
| RRIRWRPPRLPRPRPRPHGDPRP | 0.145 |

| Sequence | shrunken log2 fold change |
| --- | --- |
| RRIRNRPPRLPRPRPRPVYEPRP | -0.027 |
| RRIRGRPPRLPRPRPRPAGNPRP | 0.693 |
| RRIRMRPPRLPRPRPRPHSDPRP | 2.6 |
| RRIRFRPPRLPRPRPRPWMHPRP | -0.0282 |
| RRIRLRPPRLPRPRPRPIKWPRP | -0.412 |
| RRIRYRPPRLPRPRPRPKSDPRP | -0.299 |
| RRIRMRPPRLPRPRPRPILQPRP | 0.133 |
| RRIRCRPPRLPRPRPRPDWDPRP | -0.149 |
| RRIRWRPPRLPRPRPRPVEYPRP | -0.00674 |
| RRIRERPPRLPRPRPRPWINPRP | -0.637 |
| RRIRGRPPRLPRPRPRPLPPPRP | 1.19 |
| RRIRMRPPRLPRPRPRPECLPRP | 1.6 |
| RRIRHRPPRLPRPRPRPTEGPRP | -0.00285 |
| RRIRLRPPRLPRPRPRPCDYPRP | -0.191 |
| RRIRARPPRLPRPRPRPFPHPRP | 0.146 |
| RRIRHRPPRLPRPRPRPNQCPRP | -0.201 |
| RRIRHRPPRLPRPRPRPYVYPRP | -0.0796 |
| RRIRYRPPRLPRPRPRPQQPPRP | 0.0699 |
| RRIRVRPPRLPRPRPRPVFRPRP | 0.189 |
| RRIRRRPPRLPRPRPRPIEEPRP | 0.0745 |
| RRIRSRPPRLPRPRPRPPTDPRP | 0.429 |
| RRIRCRPPRLPRPRPRPQPSPRP | 0.228 |
| RRIRHRPPRLPRPRPRPQTSPRP | -0.264 |
| RRIRGRPPRLPRPRPRPQYVPRP | -0.0061 |
| RRIRFRPPRLPRPRPRPPRDPRP | 1 |
